In PMC7760923:
Several values for one entry are separate records, joined by “and”; a condition that tells them apart may be missing. Equal entries are not always repeated.

Key:
P12643 = test: dynamic light scattering (DLS); BMP-2 in MES buffer pH 5, 25 °C, 173°; association of BMP-2 dimers to aggregates; settings: other: dynamic light scattering (DLS)
[1] = target: E. coli-derived recombinant human bone morphogenetic protein 2 (rhBMP-2) (human) (UniProt P12643); test: native gel or EMSA; blue native PAGE of BMP-2 solutions, Western blot with anti-BMP-2 and silver stain; oligomers of the disulfide-bridged 26 kDa dimer

Sequence of E. coli-derived recombinant human bone morphogenetic protein 2 (rhBMP-2) (P12643 283-396 limits assumed): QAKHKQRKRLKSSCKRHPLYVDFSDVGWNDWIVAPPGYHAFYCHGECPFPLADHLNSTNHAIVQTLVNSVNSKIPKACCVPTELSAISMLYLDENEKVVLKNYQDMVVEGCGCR

stoichiometry N (26 kDa BMP-2 dimers) [1]	Substance	percent of BMP-2 in larger aggregates (DLS) (P12643)
–	E. coli-derived recombinant human bone morphogenetic protein 2 (rhBMP-2)	3% was apparently in the form of larger aggregates
2 and 4	E. coli-derived recombinant human bone morphogenetic protein 2 (rhBMP-2) (from UniProt P12643 24-396) (ligand)	–
